Reference: publication PMC3958483, “Fine Specificity and Molecular Competition in SLAM Family Receptor Signalling” (PLoS ONE, 2014)

Tests used:
Assay in all cases: SPR; biotinylated phosphopeptides immobilised on streptavidin chip (about 25 RU single, 50 RU tandem motifs); soluble recombinant protein injected; 37°C; HBS-EP; equilibrium binding (Table 4; same-day purification not given)
[1] = molecular target: CD244 ITSM2 phosphopeptide (human)
[2] = molecular target: CD244 ITSM3 phosphopeptide (human)
[3] = molecular target: CD244 ITSM4 phosphopeptide (human)

Row | Kd [1] [nM] | Kd [2] [nM] | Kd [3] [nM] | Binder
1 | 24000 |  |  | SHP-2 N-terminal + C-terminal (N+C) SH2 domains (domain or fragment) TSRRWFHPNITGVEAENLLLTRGVDGSFLARPSKSNPGDFTLSVRRNGAVTHIKIQNTGDYYDLYGGEKFATLAELVQYYMEHHGQLKEKNGDVIELKYPLNCADPTSERWFHGHLSGKEAEKLLTEKGKHGSFLVRESQSHPGDFVLSVRTGDDKGESNDGKSKVTHVMIRCQELKYDVGGGERFDSLTDLVEHYKKNPMVETLGTVLQLKQPLNTT
2 | 2300 | 2200 | 5600 | SHIP SH2 (SH2 domain from human SHIP-1) (domain or fragment) WNHGNITRSKAEELLSRTGKDGSFLVRASESISRAYALCVLYRNCVYTYRILPNEDDKFTVQASEGVSMRFFTKLDQLIEFYKKENMGLVTHLQYPV
3 | 60 | 70 | 40 | EAT-2 (recombinant full-length human EAT-2) (natural protein) MDLPYYHGRLTKQDCETLLLKEGVDGNFLLRDSESIPGVLCLCVSFKNIVYTYRIFREKHGYYRIQTAEGSPKQVFPSLKELISKFEKPNQGMVVHLLKPIKRTSPSLRWRGLKLELETFVNSNSDYVDVLP
